Assay results: the nanobody polyreactivity screen of Harvey et al. (2022)

Experiment: yeast display, Sf9 membrane polyspecificity reagent, FACS + sequencing; frameworks hold sequencing errors
In short: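 Using colony PCR, genes from sorted yeast display clones were amplified, then sequenced on MiSeq at 2 × 250 and filtered by CDR length. The clones had been stained with 10% biotinylated, detergent-solubilized Sf9 membrane reagent for 1 hour at 4 °C and sorted by FACS into low and high (top ~1%) gates on anti-HA and streptavidin fluorescence. Polyreactivity labels come from the gate of origin.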

Sequence	polyreactivity (PSR sort gate)
QVQLVESGGGLVQAGGSLRLSCAASGSIFVNNAMGWYRQAPGKERELVAAISSRSSRTFYADSVKGRFTISRDNAKNTVYLQMNSLKPEDTAVYYCAKPGYLRPSRYDYWGQGTQVTVSS	high polyreactivity
QVQLVESGGGLVQAGGSLRLSCAASGSIFVPNAMGWYRQAPGKEREFVAAITRSGGRTYYADSVKGRFTISRDNAKNTVYLQMNSLKPEDTAVYYCAAPYGTYAYDYWGQGTQVTVSS	high polyreactivity
QVQLVESGGGLVQAGGSLRLSCAASGSIFVPYAMGWYRPAPGKERELVAAISWSGGSTYYADSVKGRFTISRDNAKNTVYLHMNSLKPEDTAVYYCAVRFRSYTSYYWIDYEYWGQGTQVTVSS	high polyreactivity
QVQLVESGGGLVQAGGSLRLSCAASGSIFVPYAMGWYRQAPGKERELVAAISRRGGRTNYADSVKGRFTISRDNAKNTVYLQMNSLKPEDTAVYYCAKYPIYYGLTRYGYWGHGTQVTVSS	high polyreactivity
QVQLVESGGGLVQAGGSLRLSCAASGSIFVPYAMGWYRQAPGKERELVAAISSRGGRTYYADSVKGRFTISRDNAKNTVYLQMNSLKPEDNAVYYCNKTAGSHIPRLEYWGQGTQVTVSS	low polyreactivity
QVQLVESGGGLVQAGGSLRLSCAASGSIFVPYAMGWYRQAPGKERELVAAITYSDGSTYYADSVKGRFTISRDNEKNTVYLQMNSLKPEDTAVYYCATYPQYYFRYDYWGQGTQVTVSS	high polyreactivity
QVQLVESGGGLVQAGGSLRLSCAASGSIFVPYTMGWYRQAPGKERELVAAINSSDDSTFYADSVKGRFTISRDNAKNTVYLKMYSLKPEDTAVYYCNATGYARWYTGDYWGQGTQVTVSS	low polyreactivity
QVQLVESGGGLVQAGGSLRLSCAASGSIFVQNAMGWYRQAPGKETELVAVINSGDSTNYADSVKGRFTISRDNAKNTVYLQMNSLKPEDTEVYYCAVDDVSYYYLRAYNYELSWYGSGLDYWGQGTQVTVSS	low polyreactivity
QVQLVESGGGLVQAGGSLRLSCAASGSIFVQYAMGWYRQAPGKERELVAGITISGGRTYYADSVKGRFTISRDNAKNTVYLLMNSLKPEDTAVYYSNADVTRASSRYNSWGHGTQVTVSS	low polyreactivity
QVQLVESGGGLVQAGGSLRLSCAASGSIFVQYAMGWYRQAPGKERELVAGITISGGRTYYADSVKGRFTISRDNAKNTVYLQMNSLKPEDTAVYYSNADVTRASSRYNSWGQGTQVTVSS	low polyreactivity
QVQLVESGGGLVQAGGSLRLSCAASGSIFVQYAMGWYRQAPGNERELVAAISNRGGSTYYADSVKGRFTISRDNAKNTVYLQMNSLKPEDTAVYYCAARKYWGYGTRYYYWGQGTQVTVSS	high polyreactivity
QVQLVESGGGLVQAGGSLRLSCAASGSIFVRYAMGWYRQAPGKEREFVAARTGNTDYADSVKGRFTISRDNAKNTVYLQMNSLKPEDTAVYYCARRPRSGTVSTPYYSLDYWGQGTQVTVSS	low polyreactivity
QVQLVESGGGLVQAGGSLRLSCAASGSIFVSNAMGWYRQAPGKERELVAAITARDVSTYYADSVKGRFTISRDNAKNTVYLQMNSLKPEDTAVYYCAGNSSTYPSDDSYDYWGQGTQVTVSS	low polyreactivity
QVQLVESGGGLVQAGGSLRLSCAASGSIFVSYAMGWYRQAPGKERELVAAITWSGGSTYYADSVKGRFTISRDNAKNTVYLQMKSLKPEDTAVYYCAADEPYPTAYEYWGQGTQVTVSS	low polyreactivity
QVQLVESGGGLVQAGGSLRLSCAASGSIFVTNAMGWYRPAPGKERELVAAIRWSGDSTYYADSVKGRFTISRDNAKNTVFLQMNSLKPEDTAVYYCAAESFRYIRLNYKYGDYYWGQGTQVTVSS	high polyreactivity
QVQLVESGGGLVQAGGSLRLSCAASGSIFVTNAMGWYRQEPGKERELVAAISVSGGSTFYADSVKGRFTISRDNAKNTVYLQMNSLKPEDTAVYYCNTVRSPPGHDYWGQGTQVTVSS	low polyreactivity
QVQLVESGGGLVQAGGSLRLSCAASGSIFVTNGMGWYRQAPGKERELVAVISWGGGNTYYADSVKGRFTISRDNAKNTVYLQMNSLKPEDTAVYYCAVDIWGGEGYDSWGQGTQVTVSS	low polyreactivity
QVQLVESGGGLVQAGGSLRLSCAASGSIFVTNTMGWYRQAPGKERELVAAITYSGGSTYYADSVKGRFTISRDNAKNNVYLQMNSLKPEDTAVYYCAARRARYHVEYYYWGQGTQVTVSS	high polyreactivity
QVQLVESGGGLVQAGGSLRLSCAASGSIFVTYAMGWYRQAPGKERELVARITSGGSTYYADSVKGRFTISRDNAKNTVYLQMNRQKPEDTAVYYCAARRWLRYDLDYWGQGTQVTVSS	low polyreactivity
QVQLVESGGGLVQAGGSLRLSCAASGSIFVVNAMGWYRPAPGKERELVAAISDSGDRTYYADSVKGRFTISRDNAKNTVYLLMNSLKPEDTAVYYCNTRYSPGYQGTEVDYWGQGTQVTVSS	low polyreactivity
QVQLVESGGGLVQAGGSLRLSCAASGSIFVVNAMGWYRQAPGKERELVAAISDSGDRTYYADSVKGRFTISRDNAKNTVYLQMNSLKPEDTAVYYCAADSIQTTAIYDYWGQGTQVTVSS	low polyreactivity
QVQLVESGGGLVQAGGSLRLSCAASGSIFVVNARGWYRQAPGKERELVAAITKNGGRTYYADSVKGRFTISRDNAKNTVYLQMNSLKPEDTAVYYCNTVKGHGGYYGYDYWGQGTQVSVSS	high polyreactivity

Sequence	polyreactivity (PSR sort gate)
QVQLVESGGGLVQAGGSLRLSCAASGSIFVWNDMGWYRQAPGKERELVASIRSGVSTYYADSVKGRFTISRDNAKNTVYLQMNSLKPEDTAVYYCAKKGPIHYIYDSWGQGTQVTVSS	low polyreactivity
QVQLVESGGGLVQAGGSLRLSCAASGSIFVYNAKGWYRQAPGKERELVAAISSSGSSTYYADSVKGRFTISRDNAKNTFYLQMNSLKPEDTAVYYCAADPARYGYWNSYDYWGQGTQVTVSS	high polyreactivity
QVQLVESGGGLVQAGGSLRLSCAASGSIFVYNAMGWYRQAPGKEREFVAGITFIGGSTYYADSVKGRFTISRDNAKNTVYLKMNSLKPEDTAVYYCNADVAPGIFYGYDSWGQGSQVTVSS	low polyreactivity
QVQLVESGGGLVQAGGSLRLSCAASGSIFVYNAMGWYRQAPGKERELVAAIDTVGSTNYADSVKGRFTISRDNAKNTVYLQMNSLKPEDTAVYYCAVVTPYWSFYEQVIPSNYWGQGTQVTVSS	low polyreactivity
QVQLVESGGGLVQAGGSLRLSCAASGSIFVYNDMGWYRQAPGKERELVAGIDWSGDRTYADSVKGRFTISRDNAKNTVYLQLNSLKPEDTAVYYCNADDWRWDEIIPYAVDYWGQGTQVTVSS	low polyreactivity
QVQLVESGGGLVQAGGSLRLSCAASGSIFVYNDMGWYRQAPGKERELVAGIDWSGDRTYADSVKGRFTISRDNAKNTVYLQMNSLKPEDTAVYYCNADEWRWDEIIPYAVDYWGQGTQVTVSS	low polyreactivity
QVQLVESGGGLVQAGGSLRLSCAASGSIFVYYAMGWYRQAPGKERELVASISRGGTSTYYADSVKGRFTISRDNAKNTVYLQMNSLKPEDTAVYYCAAQPYRTGTYDYWGQGTQVTVSS	low polyreactivity
QVQLVESGGGLVQAGGSLRLSCAASGSIFVYYAMGWYRQAPGNERELVAAINNGGSTTYADSVKGRFTISRDNAKNTVYLQMNSLKPEDTAVYYCAADLEPRTNAPGLPTPDGYYWGQGTQVTVSS	low polyreactivity
QVQLVESGGGLVQAGGSLRLSCAASGSIFVYYDMGWYRQAPGKERELVAAISTTCGRTYYADSVKGRFTISRDNAKNTVYLQMNSLKPEATAVYYCAARYTIPYKRYDYWGQGPQVTVSS	high polyreactivity
QVQLVESGGGLVQAGGSLRLSCAASGSIFWDYAMGWYRQAPGKERELVAAISGSGTSTYYADSVKGRFTISRDNAKNTVYLQMNSLKPEDTAVYYCAARIWTGRGRKLGNGYDYWGQGTQVTVSS	low polyreactivity
QVQLVESGGGLVQAGGSLRLSCAASGSIFWDYAMGWYRQAPGKERELVAAISSNGGNTYYADSVKGRFTISRDNAKNTVYLQMNSLKPEDTAVYYCAARAKRRHGYWGQGTQVTVSS	high polyreactivity
QVQLVESGGGLVQAGGSLRLSCAASGSIFWGYAMGWYRQAPGKERELVATITYGGDSTYYADSVKGRFTISRDNAKNTVYLQMNSLKPEDTAVYYCNVGVEPYDYDYWGQGTQVTVSS	low polyreactivity
QVQLVESGGGLVQAGGSLRLSCAASGSIFWGYDMGWYRQAPGKERELVARISYSGGSTSYADSVKGRFTISRDNAKNTVYLQMNSLKPEDTAVYYCAADEGGFWWTYPYDSWGQGTQVTVSS	low polyreactivity
QVQLVESGGGLVQAGGSLRLSCAASGSIFWLYAMGWYRQAPGKEREFVAAITTSGSSTRYADSVKGRFTISRDNAKNTVYLQMNSLKPEDTAVYYCAARNRTFFQPTYYYWGQGTQVTVSS	high polyreactivity
QVQLVESGGGLVQAGGSLRLSCAASGSIFWNYAMGWYRQAPGKEREFVASISRSGGSTYYADSVKGRFTISRDNAKNTVYLQMNSLKPEDTAVYYCAARGVKISYNYWGQGTQVTVSS	high polyreactivity
QVQLVESGGGLVQAGGSLRLSCAASGSIFWPNAMGWYRQAPGKERELVAAISWGTGSTYYADSVKGRFTISRDNAKNTVYLQMNSLKPEDTAVYYCAADGAYLDPYYDYWGQGTQVTVSS	low polyreactivity
QVQLVESGGGLVQAGGSLRLSCAASGSIFWPNTMGWYRQAPGKERELVAGISFGGGSTYYADSVKGRFTISRDNAKNTVYLQMNSLKPEDTEVYYCNAPGPVISRRTDSYWYGWYDYWGQGTQVTVSS	low polyreactivity
QVQLVESGGGLVQAGGSLRLSCAASGSIFWPYAMGWYRQAPGKERELVAGISSGGSTYYADSVKGRFTISRDNAKNTVYLQMNSLKPEDTAVYYCAARWQWLNGYYYWGQGTQVTVSS	high polyreactivity
QVQLVESGGGLVQAGGSLRLSCAASGSIFWQNAMGWYRQAPGKERELVARITSGGSTNYADSVKGRFTISRDNAKNTFYLQMNSLKPEDTGVYYCNRVRYRSYFAYYYWGQGTQVTVSS	high polyreactivity
QVQLVESGGGLVQAGGSLRLSCAASGSIFWRYAMGWYRQAPGKERELVAAITWSGGTSYADSVKGRFTLSRDNAKNTVYLQMNSLKQEDTAVYYCIADGLSYYLYDYWGQGTQVTVSS	low polyreactivity
QVQLVESGGGLVQAGGSLRLSCAASGSIFWSYAMGWYRQAPGKERELVAAITTDGGTNYADSVKGRFTISRDNAKNTVYLQMNSLKPEDTAVYYCAARYGTSYIVRWTYYAFDYWGQGTQVTVSS	low polyreactivity
